# Measurements: patent US20090074762A1 (PDL BIOPHARMA, published 2009)
# Changes are numbered by the printed parent chain.
# T1: mouse TweakR (mouse, UniProt Q9CR75 28-80, limits assumed)
# T1 construct: also called mouse TweakR protein
# T1 sequence (looked up): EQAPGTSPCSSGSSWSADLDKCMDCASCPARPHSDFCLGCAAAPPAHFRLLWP
# T2: TweakR on cells (TweakR-expressing cells, TweakR transfectant cell line, A375 melanoma cells, tumor tissue) (human, UniProt Q9NP84 28-129)
# T2 sequence: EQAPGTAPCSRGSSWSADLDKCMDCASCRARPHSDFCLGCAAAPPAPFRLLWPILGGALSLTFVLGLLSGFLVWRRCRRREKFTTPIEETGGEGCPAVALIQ
# T3: soluble form of the extracellular domain of human TweakR (human, UniProt Q9NP84 28-80)
# T3 construct: also called soluble TweakR extracellular domain
# T3 sequence: T1 sequence (looked up) with S7A, S11R, P29R, H47P
# B1: murine anti-TweakR antibody 18.3.3 (antibody, V domains shown)
# VH: EVKLGESGGGLVQPGGSMKLSCVASGFPFTKYWMNWVRQSPEKGLEWVAEIRLKSDNYATHYAESAKGRFTISRDDSRSSVYLQMNNLRAEDTAIYYCSPTYADTMDYWGQGTSVTVSS
# VL: DIVLTQSPASLAVSLGQRATISCKASQSVSTSTYSYMQWYQQRPGQSPKLLIKYASKLDSGVPARFSGSGSGTDFTLNIHPVEEEDTATYYCQHSWELPYTFGGGTRLEIKR
# notes: Mouse monoclonal antibody
# B2: murine anti-TweakR antibody ITEM-1 (antibody, V domains shown)
# VH: EVKLEESGGGLVQPGGSMKLSCVASGFSFSNYWMNWVRQSPEKGLEWVAEIRLKSNNYATHYAESVKGRFTISRHDSKSSVYLQMNNLRAEDTGIYYCTRAYADYFDYWGQGTTLTVSS
# VL: B1 VL with A12V, K24R, Q38H, R43K, S47P, L50I, K57N, D59E, L98I, R107K
# B3: murine anti-TweakR antibody ITEM-3 (antibody, V domains shown)
# VH: EVKLEESGGGLVQPGGSMKLSCVVSGLTFSRYWMSWVRQSPEKGLEWVAEIRVKSDNYATTHYAESVKGKFTVSRDDSKSRLYLQMSSLRPEDTGIYYCIGYYADAMDYWGQGTSVTVSS
# VL: B1 VL with A12V, K24R, T33S, Q38H, R43K, S47P, L98I, Y100W, R107K, L108M
# B4: murine anti-TweakR antibody 136.1 (antibody, V domains shown)
# VH: EVKLEESGGGLVQPGGSMKLSCVASGFTFNNYWMSWVRQSPEKGLEWLAEIRLKSDNYATHYAESVKGKFTISRDDSKSRLYLQMNNLRAENTGIYYCTGGFADYFDYWGQGTTLTVSS
# VL: B1 VL with A12T, K24R, T33S, S47P, S56T, K57N, T87A, L98I, R107K
# notes: Mouse monoclonal antibody
# B5: murine anti-TweakR antibody 19.2.1 (antibody, mouse IgG2a, V domains shown)
# VH: EVKLEESGGGLVQPGGSMKLSCVASGFTFSSYWMSWVRQSPEKGLEWVAEIRLKSDNYATHYAESVKGKFTISRDDSKSRLYLQMNSLRAEDTGIYYCTGYYADAMDYWGQGTSVTVSS
# VL: DIVLTQSPASLAVSLGQRATISCRASQSVSTSSYSYMHWYQQKPGQPPKLLIKYASNLESGVPARFSGSGSGTDFTLNIHPVEEEDTATYYCQHSWEIPYTFGGGTKLEIK
# B6: humanized anti-TweakR antibody PDL400 (antibody, V domains shown)
# VH: QVQLVQSGAEVKKPGASVKISCKVSGYTFTDFIIAWVKQAPGKGLEWIGEIYPGTGRTYYSEKFRGKATLTADKSTSTAYMELSSLRSEDTAVYYCARRTIYYDYDGDYWGQGTTVTVSS
# VL: DIVMTQSPLSLPVTPGEPASISCRSSKSLLHSNGITYLYWYLQKPGQSPQLLIYQMSNLASGVPDRFSSSGSGTDFTLKISRVEAEDVGVYYCAHNLELPWTFGGGTKVEIK
# notes: constant regions not expressly stated
# B7: humanized anti-TweakR antibody PDL192 (antibody, human IgG1, V domains shown)
# VH: EVQLVESGGGLVQPGGSLRLSCAASGFTFSSYWMSWVRQAPGKGLEWVAEIRLKSDNYATHYAESVKGRFTISRDDSKNSLYLQMNSLRAEDTAVYYCTGYYADAMDYWGQGTLVTVSS
# VL: DIQMTQSPSSLSASVGDRVTITCRASQSVSTSSYSYMHWYQQKPGKAPKLLIKYASNLESGVPSRFSGSGSGTDFTLTISSLQPEDFATYYCQHSWEIPYTFGGGTKVEIK
# Target: T1, mouse TweakR
# Experiment: binding assay read as OD650, single bar per antibody and target; format and antibody concentration not given
row,Binder,binding result
1,B1,binds

# Target: human TweakR (R56P) (human, UniProt Q9NP84 28-80, limits assumed)
# Experiment: as above
row,Binder,binding result
1,B1,binds

# Target: T2, TweakR on cells (TweakR-expressing …)
# Experiment: cell-based or functional assay
row,Binder,agonist activity (IL-8 release assay) [%]
1,B2,~25
2,B1,~14
3,B3,~37
4,B4,~278
5,B5,~39
6,B6,~8
7,B7,~25

# Target: T3, soluble form of the extracellular …
# Experiment: Biacore; antibody captured by immobilized anti-Fc, soluble TweakR extracellular domain injected
# Protocol: The relative binding affinities of various mouse and humanized anti-TweakR antibodies were assessed in a Biacore assay using a soluble form of the extracellular domain of human TweakR. Briefly, goat anti-mouse Fc antibody or goat anti-human Fc was first immobilized to the biosensor surface followed by capture of antibody on the test surface. Subsequently, the soluble form of the extracellular domain of human TweakR was injected to measure binding to, and dissociation from, antibody.
row,Binder,Kd [pM]
1,B1,230
2,B4,680
3,B5,7120
4,B6,580
